Experimental data as given in patent US6958236B2, “Control of gene expression in plants” (priority 2000, dated 2005).

Test system: pCGS206 (luciferase reporter with response elements for the GAL4 DNA binding domain)
Assay: Maize BMS cells bombarded with GAL4 luciferase reporter and receptor vector, GUS-normalized luciferase
Type: cell-based
Conditions: for Normalized Average (EtOH): unliganded background
Method: Maize BMS (Black Mexican Sweet) cultured cells are transfected with pCGS206 and pCGS208 by high velocity microprojectile bombardment. In addition, an expression plasmid containing the maize ubiquitin promoter driving the expression of β-glucuronidase (GUS) is added to the transfection to serve as an internal control to normalize against variations among the samples.
Transfections are treated and cell lysates are made essentially as described in U.S. Pat. No. 5,880,333. […] Both luciferase and GUS assays are performed with 20 μl of cell lysate for each assay using the Promega Luciferase Kit (Promega cat #E1500) and GUS-Light Kit (Tropix) respectively. Relative light units are determined using a Turner Designs TD 20/20 luminometer.
In addition to tebufenozide, methoxytebufenozide (“MethoxyTeb”) is also capable of inducing gene expression in maize BMS cells. Both pCGS206 and pCGS208 are transfected as described above and methoxytebufenozide is added in place of tebufenozide at 25 μM and 10 μM.
Maize BMS cells are transfected and assayed as in Example 12.
Transformation of maize suspension cells, chemical treatment, and reporter activity assays are performed as described in Example 12. Maize BMS (Black Mexican Sweet) cultured cells are transfected with pCGS206 (pBS-bz1TATA/intronLUC), pCGS203 (G(M)MV), pCGS672 (G(M)MC), and pCGS678 (G(M)MD) by high velocity microprojectile bombardment. In addition, an expression plasmid containing the maize ubiquitin promoter driving the expression of β-glucuronidase (GUS) is added to the transfection to serve as an internal control to normalize against variations among the samples.
Maize BMS cells are bombarded with reporter vector pCGS206 and chimeric receptors and treated with tebufenozide essentially as described in Example 12. Transfections are treated and cell lysates are made essentially as described in U.S. Pat. No. 5,880,333. […] Both luciferase and GUS assays are performed with 20 μl of cell lysate for each assay using the Promega Luciferase Kit (Promega cat #E1500) and GUS-Light Kit (Tropix) respectively. Relative light units (RLU) are determined using a Turner Designs TD 20/20 luminometer.

[1] = Example 24, Experiment 1, 20 μM Teb
[2] = Example 24, Experiment 1, BMS cells
[3] = Example 24, Experiment 2, 20 μM Teb
[4] = Example 24, Experiment 2, BMS cells
[5] = Example 26, + 10 μM Teb vs without
[6] = Example 26, BMS cells, reporter pCGS206, no ligand
[7] = Example 28, BMS cells, reporter pCGS206, no ligand, GUS-normalized

Molecule	average fold activation of the Manduca G(M)MV EcR (ubi/GAL4-MV) (maize BMS cells, methoxytebufenozide 25 μM and 10 μM) [fold]	Fold Induction with Teb Relative to Receptor with EtOH [1] [fold]	Fold Induction with Teb Relative to Reporter with EtOH [1] [fold]	Normalized Average (EtOH) [2]	Fold Induction with Teb Relative to Receptor with EtOH [3] [fold]	Fold Induction with Teb Relative to Reporter with EtOH [3] [fold]	Normalized Average (EtOH) [4]	Experiment #1 Luciferase (Example 26, + 10 μM Teb)	Experiment #2 Luciferase (Example 26, + 10 μM Teb)	Experiment #1 Fold Induction [5] [fold]	Experiment #2 Fold Induction [5] [fold]	Experiment #1 Luciferase [6]	Experiment #2 Luciferase [6]	Experiment #1 RLU [7] [RLU]	Experiment #2 RLU [7] [RLU]	average fold induction with tebufenozide (maize BMS cells, 10 μM tebufenozide, average of assays) [fold]	rank of fold induction among D+E domain combinations (Example 24, BMS cells, 20 μM Teb)
COc1cccc(C(=O)NN(C(=O)c2cc(C)cc(C)c2)C(C)(C)C)c1C [methoxytebufenozide, reference compound]	25	–	–	–	–	–	–	–	–	–	–	–	–	–	–	–	–
G(M)MV: EcR chimera: GAL4 DNA binding domain, Manduca sexta D and E domains, VP16; SEQ ID NO:104-105 (protein, (1)..(3972) GAL4-Manduca EcR-VP16 fragment in pCGS202) MKLLSSIEQACDICRLKKLKCSKEKPKCAKCLKNNWECRYSPKTKRSPLTRAHLTEVESRLERLEQLFLLIFPREDLDMILKMDSLQDIKALLTGLFVQDNVNKDAVTDRLASVETDMPLTLRQHRISATSSSEESSNKGQRQLTVSTRMRPECVVPESTCKNKRREKEAQREKDKLPVSTTTVDDHMPAIMQCDPPPPEAARIHEVVPRFLTEKLMEQNRLKNVTPLSANQKSLIARLVWYQEGYEQPSEEDLKRVTQTWQLEEEEEEETDMPFRQITEMTILTVQLIVEFAKGLPGFSKISQSDQITLLKASSSEVMMLRVARRYDAATDSVLFANNQAYTRDNYRKAGMSYVIEDLLHFCRCMYSMSMDNVHYALLTAIVIFSDRPGLEQPLLVEEIQRYYLKTLRVYILNQHSASPRCAVLFGKILGVLTELRTLGTQNSNMCISLKLKNRKLPPFLEEIWDVAEVSTTKLAPPTDVSLGDELHLDGEDVAMAHADALDDFDLDMLGDGDSPGPGFTPHDSAPYGALDMADFEFEQMFTDALGIDEYGG	–	44	83	6.889	15	61	1.721	99.49	136.41	16.7	35.1	5.97	3.89	3.73	3.17	36	–
G(E)EV: EcR chimera: GAL4 DBD, European corn borer D and E domains, VP16; SEQ ID NO:124-125 (protein) MQQLYVDFFSPAFIRYLFAWYCFFCRCSPCCLVLLLQGSATMKLLSSIEQACDICRLKKLKCSKEKPKCAKCLKNNWECRYSPKTKRSPLTRAHLTEVESRLERLEQLFLLIFPREDLDMILKMDSLQDIKALLTGLFVQDNVNKDAVTDRLASVETDMPLTLRQHRISATSSSEESSNKGQRQLTVSTRMRPECVVPETQCAQKRKEKKAQREKDKLPVSTTTVDDHMPPIMQCDPPPPEAARILECLQHEVVPRFLSEKLMEQNRLKNIPPLTANQQFLIARLVWYQDGYEQPSEEDLKRVTQTWQSADEEDEDSDMPFRQITEMTILTVQLIVEFAKGLPGFSKISQPDQITLLKACSSEVMMLRVARRYDAVSDSVLFANNQAYTRDNYRKAGMAYVIEDLLHFCRCMYSMSMDNVHYALLTAIVIFSDRPGLEQPQLVEEIQRYYLNTLRVYIMNQHSASPRCAVIYAKILSVLTELRTLGMQNSNMCISLKLKNRKLPPFLEEIWDVKLAPPTDVSLGDELHLDGEDVAMAHADALDDFDLDMLGDGDSPGPGFTPHDSAPYGALDMADFEFEQMFTDALGIDEYGG	–	57	119	7.601	17	99	2.394	–	–	–	–	–	–	–	–	–	–
G(M)FV: EcR chimera: GAL4 DBD, Manduca sexta D domain, fall armyworm E domain, VP16; SEQ ID NO:122-123 (protein) MQQLYVDFFSPAFIRYLFAWYCFFCRCSPCCLVLLLQGSATMKLLSSIEQACDICRLKKLKCSKEKPKCAKCLKNNWECRYSPKTKRSPLTRAHLTEVESRLERLEQLFLLIFPREDLDMILKMDSLQDIKALLTGLFVQDNVNKDAVTDRLASVETDMPLTLRQHRISATSSSEESSNKGQRQLTVSTRMRPECVVPESTCKNKRREKEAQREKDKLPVSTTTVDDHMPAIMQCDPPPPEAARIHEVVPRFLTEKLMEQNRLKNVTPLSANQKSLIARLVWYQEGYEQPSEEDLKRVTQTWQLEEEEEEETDMPFRQITEMTILTVQLIVEFAKGLPGFSKISQSDQITLLKASSSEVMMLRVARRYDAATDSVLFANNQAYTRDNYRKAGMSYVIGDLLHFCRCMYSMSMDNVHYALLTAIVIFSDRPGLEQPLLVEEIQRYYLKTLRVYILNQYSASPRCAVLFGKILGVLTELRTLGTQNSNMCISLKLKNRKLPPFLEEIWDVKLAPPTDVSLGDELHLDGEDVAMAHADALDDFDLDMLGDGDSPGPGFTPHDSAPYGALDMADFEFEQMFTDALGIDEYGG	–	51	52	3.766	24	57	0.484	–	–	–	–	–	–	–	–	–	–
G(M)EV: EcR chimera: GAL4 DBD, Manduca sexta D domain, European corn borer E domain, VP16; SEQ ID NO:120-121 (protein) MQQLYVDFFSPAFIRYLFAWYCFFCRCSPCCLVLLLQGSATMKLLSSIEQACDICRLKKLKCSKEKPKCAKCLKNNWECRYSPKTKRSPLTRAHLTEVESRLERLEQLFLLIFPREDLDMILKMDSLQDIKALLTGLFVQDNVNKDAVTDRLASVETDMPLTLRQHRISATSSSEESSNKGQRQLTVSTRMRPECVVPESTCKNKRREKEAQREKDKLPVSTTTVDDHMPAIMQCDPPPPEAARIHEVVPRFLTEKLMEQNRLKNVTPLSANQKSLIARLVWYQDGYEQPSEEDLKRVTQTWQSADEEDEDSDMPFRQITEMTILTVQLIVEFAKGLPGFSKISQPDQITLLKACSSEVMMLRVARRYDAVSDSVLFANNQAYTRDNYRKAGMAYVIEDLLHFCRCMYSMSMDNVHYALLTAIVIFSDRPGLEQPQLVEEIQRYYLNTLRVYIMNQHSASPRCAVIYAKILSVLTELRTLGMQNSNMCISLKLKNRKLPPFLEEIWDVKLAPPTDVSLGDELHLDGEDVAMAHADALDDFDLDMLGDGDSPGPGFTPHDSAPYGALDMADFEFEQMFTDALGIDEYGG	–	63	119	6.965	58	139	0.028	–	–	–	–	–	–	–	–	–	highest fold induction
G(M)BV: EcR chimera: GAL4 DBD, Manduca sexta D domain, black cutworm E domain, VP16; SEQ ID NO:118-119 (protein) MQQLYVDFFSPAFIRYLFAWYCFFCRCSPCCLVLLLQGSATMKLLSSIEQACDICRLKKLKCSKEKPKCAKCLKNNWECRYSPKTKRSPLTRAHLTEVESRLERLEQLFLLIFPREDLDMILKMDSLQDIKALLTGLFVQDNVNKDAVTDRLASVETDMPLTLRQHRISATSSSEESSNKGQRQLTVSTRMRPECVVPESTCKNKRREKEAQREKDKLPVSTTTVDDHMPAIMQCDPPPPEAARIHEVVPRFLTEKLMEQNRLKNVTPLSANQKSLIARLVWYQEGYEQPSEEDLKRVTQTWQSDEDEEESDMPFRQITEMTILTVQLIVEFAKGLPGFAKISQSDQITLLKACSSEVMMLRVARRYDAATDSVLFANNQAYSRDNYRKAGMSYVIEDLLHFCRCMYSMMMDNVHYALLTAIVIFSDRPGLEQPLLVEEIQRYYLNTLRVYILNQNSASPRCPVVFAKILGILTELRTLGMQNSNMCISLKLKNRKLPPFLEEIWDVESRGKLAPPTDVSLGDELHLDGEDVAMAHADALDDFDLDMLGDGDSPGPGFTPHDSAPYGALDMADFEFEQMFTDALGIDEYGG	–	34	81	8.701	26	95	1.539	–	–	–	–	–	–	–	–	–	–
